According to article PMC6467748:

Target: mouse-derived mAb 735 (mo735) (mouse)
Experiment: SPR

chicken brain-derived polysialylated neural cell adhesion molecule (NCAM) (from UniProt P13590 20-711) (natural protein)
Kd: 0.0102 µM
